Data: PMC5685503

Molecular target: isolated phosphodiesterase (PDE) domain of RhoPDE (Salpingoeca rosetta) (UniProt F2TZN0)
Assay: SEC

Substance: isolated phosphodiesterase (PDE) domain of RhoPDE (from UniProt F2TZN0 386-702) (domain or fragment)
- stoichiometry N: 2
